Assay results: patent publication US20210032365A1 (Chugai, published 2021)
Positions count from the first letter of the chain named. Numbers in names are those of the source. Where two headings read alike, the source gives them in different places.

What was measured:
[1] = target: T1, Serum-derived human C1s (human, UniProt P09871 16-688); experiment: SPR Biacore T200, 37 C, antibody captured on protein A/G, pH 7.4, 1.2 mM CaCl2
T1 construct: The analyte was C1s purified from serum; also called hC1s
T1 sequence: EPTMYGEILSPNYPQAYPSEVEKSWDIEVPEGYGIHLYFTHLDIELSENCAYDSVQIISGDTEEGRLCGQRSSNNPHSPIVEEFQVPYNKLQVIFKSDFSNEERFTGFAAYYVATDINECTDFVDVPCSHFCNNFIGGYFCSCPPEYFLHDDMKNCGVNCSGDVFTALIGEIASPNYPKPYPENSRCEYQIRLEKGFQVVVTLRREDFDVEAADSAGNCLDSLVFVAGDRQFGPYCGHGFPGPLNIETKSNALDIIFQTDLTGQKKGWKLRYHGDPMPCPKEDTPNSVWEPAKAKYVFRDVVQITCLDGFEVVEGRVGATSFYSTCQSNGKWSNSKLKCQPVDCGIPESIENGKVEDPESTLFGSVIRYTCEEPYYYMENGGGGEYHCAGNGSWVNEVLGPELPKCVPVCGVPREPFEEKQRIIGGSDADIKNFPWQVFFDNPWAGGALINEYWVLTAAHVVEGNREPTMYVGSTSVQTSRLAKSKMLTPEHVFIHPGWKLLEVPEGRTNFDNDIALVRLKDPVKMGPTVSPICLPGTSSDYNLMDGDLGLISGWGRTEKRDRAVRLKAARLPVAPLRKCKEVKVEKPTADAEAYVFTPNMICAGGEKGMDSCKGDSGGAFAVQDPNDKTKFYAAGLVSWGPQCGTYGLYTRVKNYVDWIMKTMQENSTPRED
Description: (§1) The binding affinity of all histidine-substituted variants at pH 7.4 and pH 5.8 were determined at 37 degrees C. using Biacore T200 instrument (GE Healthcare). Recombinant Protein A/G (Pierce) was immobilized onto all flow cells of a CM4 sensor chip using amine coupling kit (GE Healthcare). Antibodies and analytes were prepared in 7(+) buffer (20 mM ACES, 150 mM NaCl, 1.2 mM CaCl2, 0.05% Tween 20, 0.005% NaN3, pH 7.4) or 5(+) buffer (20 mM ACES, 150 mM NaCl, 1.2 mM CaCl2), 0.05% Tween 20, 0.005% NaN3, pH 5.8). Each antibody was captured onto the sensor surface by protein A/G. Antibody capture levels were aimed at 200 resonance unit (RU). […] Sensor surface was regenerated each cycle with 10 mM Glycine-HCl pH 1.5. […] An additional dissociation phase at pH 5.8 was integrated immediately after the dissociation phase at pH 7.4. This dissociation rate in 5(+) buffer was determined by processing and fitting data using Scrubber 2.0 (BioLogic Software) curve fitting software.

[2] = target: T1, Serum-derived human C1s; experiment: SPR Biacore T200, 37 C, ratio of dissociation rates pH 5.8 / pH 7.4, 1.2 mM CaCl2
Description: as §1

[3] = target: T1, Serum-derived human C1s; experiment: SPR Biacore T200, 37 C, antibody captured on protein A/G, pH 5.8, 1.2 mM CaCl2; marked *: not accurately determined, low binding response
Description: as §1

[4] = target: T1, Serum-derived human C1s; experiment: SPR Biacore T200, 37 C, ratio of dissociation rates pH 5.8 / pH 7.4, 1.2 mM CaCl2; remark: listed apart in the source
Description: (§2) The binding affinity of all histidine-substituted variants at pH 7.4 and pH 5.8 were determined at 37 degrees C. using Biacore T200 instrument (GE Healthcare). Recombinant Protein A/G (Pierce) was immobilized onto all flow cells of a CM4 sensor chip using amine coupling kit (GE Healthcare). Antibodies and analytes were prepared in 7(+) buffer (20 mM ACES, 150 mM NaCl, 1.2 mM CaCl2), 0.05% Tween 20, 0.005% NaN3, pH 7.4) or 5(+) buffer (20 mM ACES, 150 mM NaCl, 1.2 mM CaCl2, 0.05% Tween 20, 0.005% NaN3, pH 5.8). Each antibody was captured onto the sensor surface by protein A/G. Antibody capture levels were aimed at 200 resonance unit (RU). Serum-derived human C1s was injected at 50 nM, followed by dissociation. Sensor surface was regenerated each cycle with 10 mM Glycine-HCl pH 1.5. […] An additional dissociation phase at pH 5.8 was integrated immediately after the dissociation phase at pH 7.4. This dissociation rate in 5(+) buffer was determined by processing and fitting data using Scrubber 2.0 (BioLogic Software) curve fitting software (Table 9).

[5] = target: T1, Serum-derived human C1s; experiment: SPR Biacore T200, 37 C, antibody captured on protein A/G, C1s at 50 nM, pH 7.4, 1.2 mM CaCl2
Description: as §2

[6] = target: T1, Serum-derived human C1s; experiment: SPR Biacore T200, 37 C, added dissociation phase at pH 5.8 (1.2 mM CaCl2) straight after that at pH 7.4
Description: as §2

[7] = target: T2, human C1s (human, UniProt P09871 16-688); experiment: SPR; KD at pH 5.8 over KD at pH 7.4, both 1.2 mM Ca
T2 construct: Analyte in the Biacore assays; also called hC1s; serum-derived human C1s (CompTech)
T2 sequence: T1 sequence
Description: as §1, with “software. […]” for “software.”

[8] = target: T2, human C1s; experiment: SPR (Biacore T200, 37C), Ab captured on protein A/G, serum C1s 50 and 200 nM; pH 5.8, 1.2 mM Ca
Description: as §1

[9] = target: T2, human C1s; experiment: SPR (Biacore T200, 37C), Ab captured on protein A/G, serum C1s 12.5 and 50 nM; pH 7.4, 1.2 mM Ca
Description: as §1

[10] = target: T2, human C1s; experiment: SPR; koff (5.8+ of 775+): extra dissociation phase at pH 5.8 (1.2 mM Ca) right after the pH 7.4 dissociation, Scrubber fit
Description: as §1

[11] = target: T2, human C1s; experiment: SPR (Biacore T200, 37C), Ab captured on protein A/G, serum C1s 200 and 800 nM; pH 5.8, 1.2 mM Ca; value marked 'Not Adopted due to low binding response at pH 5.8'
Description: as §1

[12] = target: T2, human C1s; experiment: SPR (Biacore T200, 37C), Ab captured on protein A/G, serum C1s 200 and 800 nM; pH 5.8, 1.2 mM Ca
Description: as §1

B1: IPN92H0286/IPN93L0205-SG136 (antibody, human IgG1, kappa, name in Kabat numbering)
heavy: EVMLVESGGGLVKPGGSLRLSCAASGFTFSNKAMSWVRQAPGKGLEWVATISSGGSHTYYLDSVKHRFTISRDNSKDTLYLQMNSLRAEDTALYYCARLFTGHAMDYWGQGTLVTVSSASTKGPSVFPLAPSSKSTSGGTAALGCLVKDYFPEPVTVSWNSGALTSGVHTFPAVLQSSGLYSLSSVVTVPSSSLGTQTYICNVNHKPSNTKVDKKVEPKSCDKTHTCPPCPAPELRRGPSVFLFPPKPKDTLMISRTPEVTCVVVDVSHEDPEVKFNWYVDGVEVHNAKTKPREEQYNSTYRVVSVLTVLHQDWLNGKEYKCKVSNKGLPSSIEKTISKAKGQPREPQVYTLPPSREEMTKNQVSLTCLVKGFYPSDIAVEWESNGQPENNYKTTPPVLDSDGSFFLYSKLTVDKSRWQQGNVFSCSVMHEALHNHYTQKSLSLSP
light: QIVLTQSPATLSLSPGERATLSCTASSSVSSSRLHWYQQKPGKAPKLWIYSTSNLASGVPSRFSGSGSGTDYTLTISSLQPEDFATYYCHQYHRHPPITFGQGTKLEIKRTVAAPSVFIFPPSDEQLKSGTASVVCLLNNFYPREAKVQWKVDNALQSGNSQESVTEQDSKDCTYSLSSTLTLSKADYEKHKVYACEVTHQGLSSPVTKSFNRGEC
notes: Substitutions are numbered by Kabat
[1]
  Kd: 1.43 nM
  kon: 574000 M⁻¹ s⁻¹
[2]
  koff (5.8+ of 775+)/koff (7.4+): 16.3
[3]
  Kd: 8530 nM
  koff: 0.0237 s⁻¹
  kon: 2780 M⁻¹ s⁻¹

B2: C1_IPN009VH2-SG4GK/IPN009VK3-SK1 (antibody, human IgG4 S228P, kappa)
heavy: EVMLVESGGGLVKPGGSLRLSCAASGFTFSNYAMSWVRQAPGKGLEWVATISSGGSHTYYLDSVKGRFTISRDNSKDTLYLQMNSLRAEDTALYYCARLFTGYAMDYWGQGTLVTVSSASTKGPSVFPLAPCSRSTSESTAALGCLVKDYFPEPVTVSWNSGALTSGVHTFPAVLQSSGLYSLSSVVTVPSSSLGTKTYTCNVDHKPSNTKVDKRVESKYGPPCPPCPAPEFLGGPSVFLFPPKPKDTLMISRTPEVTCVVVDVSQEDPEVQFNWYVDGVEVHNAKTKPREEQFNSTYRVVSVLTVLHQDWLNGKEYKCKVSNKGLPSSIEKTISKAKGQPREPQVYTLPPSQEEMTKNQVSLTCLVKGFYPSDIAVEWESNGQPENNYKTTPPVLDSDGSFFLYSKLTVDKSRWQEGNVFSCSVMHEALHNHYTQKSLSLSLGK
light: B1 light with R33Y, H93Y, H95L, C173S
notes: also called IPN009VH2/IPN009VK3; IPN09VH2/IPN09VK3
[4]
  koff (5.8+ of 775+)/koff (7.4+): 0.4
[5]
  koff: 0.00037 s⁻¹
  kon: 298000 M⁻¹ s⁻¹
[6]
  koff: 0.000148 s⁻¹

B3: IPN92H0038/IPN93L0024-SG136 (antibody, human IgG1, kappa, name in Kabat numbering)
heavy: B1 heavy with K32Y
light: B1 light with R33Y, H93Y, H95L, P96H
notes: also called IPN92H0038/IPN93L0024 (lot PPU2045)
[7]
  KD (5.8+)/KD (7.4+): 8.9
[8]
  Kd: 10.7 nM
[9]
  Kd: 1.2 nM
  koff: 0.000461 s⁻¹
[10]
  koff: 0.00354 s⁻¹

B4: IPN92H0286/IPN93L0205-SG136 (antibody, human IgG1, kappa, name in Kabat numbering)
heavy: B1 heavy
light: B1 light
notes: also called IPN92H0286/IPN93L0205 (lot PPU2048); IPN92H0286/IPN93L205-SG136
[9]
  Kd: 1.43 nM
  koff: 0.000822 s⁻¹
[10]
  koff: 0.0134 s⁻¹
[11]
  Kd: 8530 nM
  koff: 0.0237 s⁻¹

B5: C1_IPN009VH2-SG4GK/IPN93L0026-SK1 (antibody, V domains shown)
VH: EVMLVESGGGLVKPGGSLRLSCAASGFTFSNYAMSWVRQAPGKGLEWVATISSGGSHTYYLDSVKGRFTISRDNSKDTLYLQMNSLRAEDTALYYCARLFTGYAMDYWGQGTLVTVSS
VL: QIVLTQSPATLSLSPGERATLSCTASSSVSSSYLHWYQQKPGKAPKLWIYSTSNLASGVPSRFSGSGSGTDYTLTISSLQPEDFATYYCHQYYRLPPHTFGQGTKLEIKR
notes: It is read here as I96H (Kabat) in the VL IPN009VK3
[4]
  koff (5.8+ of 775+)/koff (7.4+): 0.77
[5]
  Kd: 4.28 nM
  koff: 0.0015 s⁻¹
  kon: 350000 M⁻¹ s⁻¹
[6]
  koff: 0.00115 s⁻¹

B6: C1_IPN92H0012-SG4GK/IPN009VK3-SK1 (antibody, V domains shown)
VH: B5 VH with I51H
VL: B5 VL with H98I
notes: Single histidine variant of the VH IPN009VH2, with SG4GK and SK1 constant regions
[4]
  koff (5.8+ of 775+)/koff (7.4+): 0.57
[5]
  koff: 0.00192 s⁻¹
  kon: 183000 M⁻¹ s⁻¹
[6]
  koff: 0.00109 s⁻¹

B7: IPN92H0281/IPN93L0024-SG136 (antibody, human IgG1, kappa, name in Kabat numbering)
heavy: B1 heavy with K32Y, H57K, Y60E, K65D, H66E, G102K
light: B1 light with R33Y, H93Y, H95L, P96H
notes: also called IPN92H0281/IPN93L0024 (lot PPU2047); IPN92H281/IPN93L0024-SG136
[7]
  KD (5.8+)/KD (7.4+): 60.9
[9]
  Kd: 2.02 nM
  koff: 0.000645 s⁻¹
[12]
  Kd: 123 nM
  koff: 0.0267 s⁻¹
  kon: 217000 M⁻¹ s⁻¹
[10]
  koff: 0.0247 s⁻¹

B8: IPN009VH2/IPN93L0023-SG136 (antibody, human IgG1, kappa, name in Kabat numbering)
heavy: B1 heavy with K32Y, H66G, H103Y
light: B1 light with R33Y, H93Y
notes: also called IPN009VH2/IPN93L0023 (lot PPU2043)
[7]
  KD (5.8+)/KD (7.4+): 0.9
[8]
  Kd: 2.48 nM
[9]
  Kd: 2.77 nM
  koff: 0.000628 s⁻¹
[10]
  koff: 0.000691 s⁻¹
